From patent US20040053278A1 (JAPANESE FOUNDATION FOR CANCER RESEARCH, published 2004)

T1: wild type (wt) HA-tagged TβR-I (UniProt P36897 34-503, limits assumed)
T1 construct: whole, on cells; also called wild type TβR-I; TGF-β type I receptor
T1 sequence (looked up): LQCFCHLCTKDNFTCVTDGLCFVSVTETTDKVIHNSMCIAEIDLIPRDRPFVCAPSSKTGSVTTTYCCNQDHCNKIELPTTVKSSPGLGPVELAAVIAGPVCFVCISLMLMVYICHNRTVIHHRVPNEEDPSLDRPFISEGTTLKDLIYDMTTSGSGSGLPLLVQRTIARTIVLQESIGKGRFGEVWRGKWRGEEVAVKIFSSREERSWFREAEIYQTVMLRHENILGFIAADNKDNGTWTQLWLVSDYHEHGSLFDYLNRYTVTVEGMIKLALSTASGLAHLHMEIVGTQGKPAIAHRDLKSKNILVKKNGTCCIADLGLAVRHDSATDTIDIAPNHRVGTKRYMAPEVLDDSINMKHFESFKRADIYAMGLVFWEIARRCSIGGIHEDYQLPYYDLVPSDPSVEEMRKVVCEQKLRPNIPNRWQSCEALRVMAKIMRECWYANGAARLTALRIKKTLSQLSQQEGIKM

T2: Smad6 (epitope-tagged, heteromerization experiment of Example 4) (mouse, UniProt O35182 1-495)
T2 construct: Whole coding region of mouse Smad6, expressed inside COS-7 cells
T2 sequence: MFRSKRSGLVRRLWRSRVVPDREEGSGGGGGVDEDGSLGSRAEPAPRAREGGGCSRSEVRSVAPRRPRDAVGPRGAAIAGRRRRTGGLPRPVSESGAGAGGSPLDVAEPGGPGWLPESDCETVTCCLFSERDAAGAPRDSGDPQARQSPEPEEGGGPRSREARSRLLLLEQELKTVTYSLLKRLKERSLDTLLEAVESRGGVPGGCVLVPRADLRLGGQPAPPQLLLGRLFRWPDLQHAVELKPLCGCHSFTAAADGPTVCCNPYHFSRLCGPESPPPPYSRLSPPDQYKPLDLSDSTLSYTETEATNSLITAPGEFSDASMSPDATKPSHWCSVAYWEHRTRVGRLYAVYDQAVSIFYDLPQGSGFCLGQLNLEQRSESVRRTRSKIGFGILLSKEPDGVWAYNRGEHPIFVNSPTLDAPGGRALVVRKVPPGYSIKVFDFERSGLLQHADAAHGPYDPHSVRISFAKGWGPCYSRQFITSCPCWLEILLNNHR


How the values were obtained:
[1] = target: T1, wild type (wt) HA-tagged TβR-I; assay: affinity cross-linking with 125I-TGF-β1, anti-FLAG immunoprecipitation from COS-7 lysates, SDS-PAGE and autoradiography
Source text: The interaction of Smad6 with the type I receptors was examined in affinity cross-linking assays. COS-7 cells were transfected with FLAG-tagged Smad6 (F-Smad6) or FLAG-tagged Smad2 (F-Smad2) in combination with the wild type (wt) or kinase-defective (KR) HA-tagged TβR-I and hexahistidine-tagged TβR-II. Cells were affinity labeled with ¹²⁵I-TGF-β1 and lysates were immunoprecipitated with anti-HA antibody or anti-FLAG M2 antibody. Immune complexes were subjected to SDS-PAGE and autoradiography. Smad6 bound to both wild type and kinase-defective TβR-I depending on the kinase activity of TβR-II. […] Similarly to Smad2, the binding of Smad6 to TβR-I required the kinase activity of TβR-II (FIG. 2a). Smad6, however, stably bound to the wild type TβR-I.

[2] = target: T2, Smad6 (epitope-tagged, heteromerization …); assay: co-immunoprecipitation and Western blot from transfected COS-7 cells
Source text: COS-7 cells were transiently transfected using DMRIE-C (Gibco/BRL, Gaithersburg, Md.). [³²P]orthophosphate- or [³⁵]methionine/cysteine-labeling and immunoprecipitation were done as described by Nakao et al. (J. Biol. Chem. 272:2896-2900, 1997). For Western blot of the immunoprecipitated proteins, tagged proteins were detected by chemiluminescence (ECL, Amersham, Arlington Heights, Ill.).
Smad2 heteromerizes with Smad4 upon phosphorylation by TβR-I (Lagna et al., 1996). It was recently shown that TGF-β also induces association of Smad2 and Smad3 (Nakao et al., EMBO. J. 16:5353-5362, 1997). The effect of Smad6 on the heteromerization of these Smads was examined (FIG. 4). COS-7 cells were transfected with the indicated combination of plasmids and subjected to immunoprecipitation followed by Western blot detection. Expression levels of Smad2 (bottom), Smad4 (middle), and Smad6 (middle) were monitored.

binding result [1] | binding result [2] | Binder
no binding |  | FLAG-tagged Smad2 (other, not shown: small tags and cut ends, Expressed inside COS-7 cells; also called F-Smad2) SSILPFTPPVVKRLLGWKKSAGGSGGAGGGEQNGQEEKWCQKAVKSLVKKLKKTGRLDELEKAITTQNCNTKCVTIPSTCSEIWGLSTANTVDQWDTTGLYSFSEQTRSLDGRLQVSHRKGLPHVIYCRLWRWPDLHSHHELKAIENCEYAFNLKKDEVCVNPYHYQRVETPVLPPVLVPRHTEILTELPPLDDYTHSIPENTNFPAGIEPQSNYIPETPPPGYISEDGETSDQQLNQSMDTGSPAELSPTTLSPVNHSLDLQPVTYSEPAFWCSIAYYELNQRVGETFHASQPSLTVDGFTDPSNSERFCLGLLSNVNRNATVEMTRRHIGRGVRLYYIGGEVFAECLSDSAIFVQSPNCNQRYGWHPATVCKIPPGCNLKIFNNQEFAALLAQSVNQGFEAVYQLTRMCTIRMSFVKGWGAEYRRQTVTSTPCWIELHLNGPLQWLDKVLTQMGSPSVRCSSMS
 | no binding | Smad2 (epitope-tagged, heteromerization experiment of Example 4) (other, not shown: small tags and cut ends) SSILPFTPPVVKRLLGWKKSAGGSGGAGGGEQNGQEEKWCQKAVKSLVKKLKKTGRLDELEKAITTQNCNTKCVTIPSTCSEIWGLSTANTVDQWDTTGLYSFSEQTRSLDGRLQVSHRKGLPHVIYCRLWRWPDLHSHHELKAIENCEYAFNLKKDEVCVNPYHYQRVETPVLPPVLVPRHTEILTELPPLDDYTHSIPENTNFPAGIEPQSNYIPETPPPGYISEDGETSDQQLNQSMDTGSPAELSPTTLSPVNHSLDLQPVTYSEPAFWCSIAYYELNQRVGETFHASQPSLTVDGFTDPSNSERFCLGLLSNVNRNATVEMTRRHIGRGVRLYYIGGEVFAECLSDSAIFVQSPNCNQRYGWHPATVCKIPPGCNLKIFNNQEFAALLAQSVNQGFEAVYQLTRMCTIRMSFVKGWGAEYRRQTVTSTPCWIELHLNGPLQWLDKVLTQMGSPSVRCSSMS
